Assays:
papain = target: T1, papain (Carica papaya, UniProt P00784); assay: Kinetic analysis of papain inactivation (continuous rate assay); type: biochemical
T1 sequence (P00784 134-345): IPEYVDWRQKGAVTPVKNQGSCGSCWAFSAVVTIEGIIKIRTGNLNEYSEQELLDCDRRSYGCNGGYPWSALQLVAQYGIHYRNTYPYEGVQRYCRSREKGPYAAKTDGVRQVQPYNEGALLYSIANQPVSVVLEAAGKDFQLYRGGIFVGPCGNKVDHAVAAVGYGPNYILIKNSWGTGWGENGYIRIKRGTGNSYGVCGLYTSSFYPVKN

cathepsin D = cathepsin D (Homo sapiens, UniProt P07339); assay: Cathepsin D inhibition, steady-state hydrolysis of chromophoric substrate; active site titration; type: biochemical
Sequence of cathepsin D (P07339 65-412, species assumed): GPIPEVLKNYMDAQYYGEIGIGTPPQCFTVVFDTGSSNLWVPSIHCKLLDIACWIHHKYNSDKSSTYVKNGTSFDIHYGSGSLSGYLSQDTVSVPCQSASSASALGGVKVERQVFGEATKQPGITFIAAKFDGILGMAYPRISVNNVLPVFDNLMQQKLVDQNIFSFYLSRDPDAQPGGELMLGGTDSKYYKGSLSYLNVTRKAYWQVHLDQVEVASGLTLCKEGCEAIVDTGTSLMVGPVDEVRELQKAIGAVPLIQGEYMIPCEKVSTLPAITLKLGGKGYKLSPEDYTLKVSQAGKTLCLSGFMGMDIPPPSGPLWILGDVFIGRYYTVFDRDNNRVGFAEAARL
Description: Residual activity is expressed as percent of control activity in samples containing no inhibitor.
The kinetics of binding of equistatin to cathepsin D was performing using a synthetic substrate which contains a chromophore, such as a nitrophenylalanine residue, in the P1′ position. The assay sensitivity, afforded by H-Pro-Thr-Glu-Phe*Nph-Arg-Leu-OH (SEQ ID NO:8) as substrate, alowed us to use 6.4 nM concentration of the enzyme as a minimal concentration in the test.

thrips protease activity = assay: Protease activity of adult western flower thrips extract, FITC-hemoglobin; type: biochemical, Frankliniella occidentalis; parameters: inhibition of protease activity: concentration or dose not given beside the values
Description: (§1) Adult western flower thrips (Frankliniella occidentalis) and leafmirer flies (Liriomyza trifolii) adult were harvested from a culture maintained on chrysanthemum plants and complete thrips and flies were homogenized in extraction on buffer (200 mM β-alanine-HCl, pH 3.5) in a volume of 5 times the weight of the insects. The buffer pH was at the previously determined pH optimum of protease activity towards hemoglobin. Final instar Colorado potato beetle larvae maintained on potato plants as described in example 5 were checked for gut aspartic protease activity by preparing a total gut extract in pH 3 buffer which is optimal for Colorado potato beetle aspartic proteases (200 mM glycine, pH 3). Guts were homogenized in 100 μl buffer per gut. Third instar western corn rootworm larvae maintained on corn roots were used to remove the guts. Ten guts were homogenized in 100 μl water and spinned twice to remove insoluble material. Two types of buffers were used in the enzymatic assay. One with a pH presumably favoring cysteine proteases (50 mM MES, pH 6.5; 0.6 mg/ml L-cysteine) and one for detecting aspartic proteases (200 mM glycine, pH 3). Supernatants were stored at −20° C.
(§2) 2 μl gut extract was combined with 2 μl inhibitor (2 mM pepstatin in methanol, 4 mM E64 in water, 2 mg/ml recombinant equistatin in water. The concentration of the other proteinaceous inhibitors was not known exactly). Appropriate buffers were added to a final volume of 100 μl. After 15′ preincubation 20 μl substrate (5 mg/ml FITC-hemoglobin) was added and incubated for 30-45 min at 37 C.
(§3) Reaction was stopped by the addition of 100 μl 10% TCA. Tubes were centrifuged and 100 μl supernatant mixed with 100 μl 10 N NaOH was measured on a fluorimeter for the extent of hemoglobin hydrolysis. Measurements were done in duplicate on one (thrips, leafminer and western corn rootworm), or three (Colorado potato beetle) different gut extracts and varied by a maximum of +/−5%.

[1] = test system: Colorado potato beetle proteases; assay: Protease activity of Colorado potato beetle larval gut extract at pH 3, FITC-hemoglobin; type: biochemical, Leptinotarsa decemlineata; parameters: inhibition of total protease activity / increase of inhibition by addition of equistatin to E64 / increase of inhibition by addition of equistatin to pepstatin: concentration or dose not given beside the values
Description: as §1, §2, §3

[2] = test system: western corn rootworm cysteine and aspartic protease activity; assay: Protease activity of western corn rootworm larval gut extract, FITC-hemoglobin; type: biochemical, Diabrotica virgifera; parameters: inhibition of protease activity: concentration or dose not given beside the values; conditions: for residual protease activity: recombinant equistatin; for inhibition of protease activity: western corn rootworm
Description: as §1, §2, §3

[3] = test system: Colorado potato beetle larvae; assay: Toxicity of equistatin painted on potato leaves towards Colorado potato beetle larvae; type: in vivo, Leptinotarsa decemlineata
Description: Potato tubers of cultivar Surprise (Solanum tuberosum) were sprouted. Sprouted tubers were planted in 1 l pots and grown for 3-4 weeks at a 22/18° C., 16/8 hr day night rhythm. Plants 10-15 cm high were placed in glass jars together with a paper wick on which 2 ul methyl jasmonate was pipeted. Jars were sealed immediately with parafilm and placed in a climate chamber of 30° C. with continuous light. Control plants were placed in a chamber of 25° C. with a 16-8 hr day night rhythm. After one day at 30° C. plants were taken from the jars and placed in the same chamber as the control. Plants were used on day 3. Freshly treated plants were used for each subsequent day of feeding. […] The top meristems were removed from the plants and painted on both sides with a 175 μM solution of recombinant equistatin in 0.3% agar obtained by mixing 1:1 a stock solution of 350 μM equistatin with 0.6% water agar. Controls were painted with 0.3% water agar. The agar solution was applied at a concentration of 30 μl/cm2.
The final concentration on the leaf was estimated to be 70 μM which is equivalent to 1.4 mg/g leaf. Painted leaves were placed in a tube containing 0.4% agar and out on top of a filterpaper inside a petridish. 21-26 newly hatched Colorado potato beetle larvae were placed on the leaves and the petridish was put in an incubator set at 28° C. Everyday fresh painted leaves replaced the old ones.

thrips females = assay: Oviposition rate of thrips females in Murai cages; type: in vivo, Frankliniella occidentalis
Description: A sample of 142 μM recombinant equistatin purified as described in example 4 was assayed for activity towards thrips. Sample was acidified with HCl to pH 3 to stabilize the equistatin protein. Controls contained acidified water or 2.5 mg/ml BSA dissolved in acidified water. The oviposition rate of thrips females was assayed using so-called Murai cages. Briefly, perspex tubes closed on side with a fine gauze were inoculated with 10 females and bee pollen. Tubes were closed with parafilm and 300 μl fluid was placed on top of the parafilm. A second layer of parafilm enclosed the fluid. Pollen and sample fluid were replaced every day for two days. Eggs deposited in the liquid sample were counted on day 2.

[4] = recombinant equistatin on MeJa treated plants
[5] = recombinant equistatin on control plants
[6] = recombinant equistatin on methyl jasmonate (MeJa) treated plants

B1: equistatin: cysteine/aspartic protease inhibitor from sea anemone Actinia equina with three type I repeated thyroglobulin domains; purified or recombinant from E. coli (protein)
chain: SLTKCQQLQASANSGLIGTYVPQCKETGEFEEKQCWGSTGYCWCVDEDGKEILGTKIRGSPDCSRRKAALTLCQMMQAIIVNVPGWCGPPSCKADGSFDEVQCCASNGECYCVDKKGKELEGTRQQGRPTCERHLSECEEARIKAHSNSLRVEMFVPECLEDGSYNPVQCWPSTGYCWCVDEGGVKVPGSDVRFKRPTC
modifications: left off: large carriers; small tags and cut ends
notes: purified or recombinant from E. coli
papain; Ki calculated from the ratio kd/ka
  Ki: 570 ± 40 pM
papain; continuous rate assay, printed value is 10^4 × kd
  10^4 × kd: 65 ± 1.5 s^−1
papain; continuous rate assay, printed value is 10^−6 × ka
  10^−6 × ka: 12 ± 0.6 M^−1 s^−1
Cathepsin D; cathepsin D, steady state velocity, chromophoric substrate
  Ki: 300 pM
Cathepsin D; titration of cathepsin D with equistatin (FIG. 12)
  equistatin needed for the saturation of 1 mol of cathepsin D: 1 mol
Thrips protease activity; thrips pH 3.5, equistatin purified from sea anemone
  residual protease activity: 5%
Thrips protease activity; thrips, pH 3.5
  inhibition of protease activity: 95%
[1]; Colorado potato beetle, pH3
  increase of inhibition by addition of equistatin to E64: 42%
  increase of inhibition by addition of equistatin to pepstatin: 12%
  inhibition of both aspartic and cysteine protease activity: more than 50%
  inhibition of total protease activity: 62%
[1]; colorado potato beetle pH 3, recombinant equistatin
  residual protease activity: 36%
[2]; western corn rootworm pH 3
  residual protease activity: 2%
[2]; western corn rootworm pH 6.5
  residual protease activity: 7%
[2]; pH 3
  inhibition of protease activity: 98%
[2]; pH 6.5
  inhibition of protease activity: 93%
[3]; [4]
  percent mortality, day 1: 0%
  percent mortality, day 2: 23%
  percent mortality, day 3: 77%
  percent mortality, day 4: 92%
[3]; [5]
  percent mortality, day 1: 0%
  percent mortality, day 2: 10%
  Larval weight, day 3: 0.5 mg/larvae
  percent mortality, day 3: 52%
  Larval weight, day 4: 0.7 mg/larvae
  percent mortality, day 4: 76%
[3]; [6]
  Larval weight, day 3: n.g.
  Larval weight, day 4: n.g.
Thrips females; 142 μM recombinant equistatin, pH 3, eggs counted on day 2
  Oviposition rate, eggs per female per day: 0.3 eggs per female per day
Thrips females; relative to BSA diet = 100%
  Oviposition rate, relative percentage: 17%

— patent US6861578B1, “Method for plant protection against insects or nematodes by transformation with a nucleic acid encoding equistatin” (Plant Research International B.V., priority 1997, dated 2005)
